Values of other authors, collected in article PMC3020241.

Target: arrestin-1 (dimer) (Mus musculus) (UniProt P20443)

arrestin-1 (from UniProt P20443)
Kd: 57.5 µM
